# Data published in paper doi:10.1101/2025.04.28.650843 (bioRxiv, 2025).
# B1: phycocyanin (PC) (complex)
# chain 1: not shown
# chain 2: MTFDAFTKVVAQADARGEFLSDAQLDALSRLVAEGNKRIDTVNRITGNASSIVANAARALFAEQPSLIAPGGNAYTNRRMAACLRDMEIILRYVTYAVFTGDASILDDRCLNGLRETYLALGVPGASVAEGVRKMKDAAVAIVSDRNGITQGDCSAIISELGSYFDKAAAAVA
# modifications: covalently attached phycocyanobilin (PCB), positions not printed | covalently attached phycocyanobilin (PCB), positions not given
# notes: as m5; as m2; The alpha-beta monomer; it forms the hexamers of the peripheral rods (72 alpha-beta monomers in six rods of two hexamers each); also called alpha-beta monomer of phycocyanin
# Molecular target: the molecule itself
# Experiment: cryo-EM structure; single-particle reconstruction of intact PBS isolated from Synechococcus 7942 in 0.75 M K/Na-PO4 pH 7.0 with 0.0125% glutaraldehyde; diluted on the grid with 50 mM Tris pH 7.0; 2.98 Å
protein,measurement,value
B1,stoichiometry N,6
